Biological target: T1, GST-tagged PABP1 (UniProt P11940 1-636)
T1 construct: also called GST-PABP1; source: E. coli BL21(DE3) from pGEX2T, purified (glutathione Sepharose 4B)
Experiment: pull-down; as the GST pull-down, with 0.1 mg/ml RNase A added to the TnT reaction, 30 min at 30 °C before pull down; value relative to no RNase A
Details: one partner purified

percent pull-down with RNase A relative to no RNase A: 79%
B1: wild type Unr, in vitro translated, 35S-labelled (natural protein, human, UniProt O75534-2 1-767, looked up)
chain: MSFDPNLLHNNGHNGYPNGTSAALRETGVIEKLLTSYGFIQCSERQARLFFHCSQYNGNLQDLKVGDDVEFEVSSDRRTGKPIAVKLVKIKQEILPEERMNGQEVFYLTYTPEDVEGNVQLETGDKINFVIDNNKHTGAVSARNIMLLKKKQARCQGVVCAMKEAFGFIERGDVVKEIFFHYSEFKGDLETLQPGDDVEFTIKDRNGKEVATDVRLLPQGTVIFEDISIEHFEGTVTKVIPKVPSKNQNDPLPGRIKVDFVIPKELPFGDKDTKSKVTLLEGDHVRFNISTDRRDKLERATNIEVLSNTFQFTNEAREMGVIAAMRDGFGFIKCVDRDVRMFFHFSEILDGNQLHIADEVEFTVVPDMLSAQRNHAIRIKKLPKGTVSFHSHSDHRFLGTVEKEATFSNPKTTSPNKGKEKEAEDGIIAYDDCGVKLTIAFQAKDVEGSTSPQIGDKVEFSISDKQRPGQQVATCVRLLGRNSNSKRLLGYVATLKDNFGFIETANHDKEIFFHYSEFSGDVDSLELGDMVEYSLSKGKGNKVSAEKVNKTHSVNGITEEADPTIYSGKVIRPLRSVDPTQTEYQGMIEIVEEGDMKGEVYPFGIVGMANKGDCLQKGESVKFQLCVLGQNAQTMAYNITPLRRATVECVKDQFGFINYEVGDSKKLFFHVKEVQDGIELQAGDEVEFSVILNQRTGKCSACNVWRVCEGPKAVAAPRPDRLVNRLKNITLDDASAPRLMVLRQPRGPDNSMGFGAERKIRQAGVID
modifications: radiolabelled with [35S] methionine
notes: numbers count on: Unr protein isoform 2; Same pET21d plasmids as for the histidine-tagged recombinant Unr; also called wt Unr; CSDE1; source: in vitro transcribed/translated from pET21d plasmid (TnT Quick Coupled System, Promega), not purified

Reference: publication PMC4776140, “Stimulation of translation by human Unr requires cold shock domains 2 and 4, and correlates with poly(A) binding protein interaction” (Scientific Reports, 2016)
